Test results reported in article PMC7897279.

Molecular target: DNA-PKcs;Ku70;Ku80 (Homo sapiens (HeLa cells);Homo …, UniProt P78527;P12956;P13010 1-4128;1-609;1-732, ||)

B1: 40N (nicked 40 bp DNA) (dsDNA)
DNA 1: GCATGCTCTACTGCTTCGATATCG
DNA 2: AAGCAGTAGAGCATGC
DNA 3: GCATGCTCTACTGCTTCGATATCG
DNA 4: AAGCAGTAGAGCATGC
modifications: none stated
**Q.** Does B1 bind?
**A.** Result: binds
